Measured values reported in article PMC9966682, “Lactose and Galactose Promote the Crystallization of Human Galectin-10” (Molecules, 2023).

Biological target: the molecule itself
Test: SEC; size-exclusion HPLC, Spherogel-TSK-2000SW; Gal-10 diluted to 100 μM, incubated 2 h at 4 °C; PBS–azide buffer (6.7 mM KH2PO4, 150 mM NaCl, 14 mM β-mercaptoethanol, 0.02% NaN3), pH 7.4; monomer–dimer equilibrium

B1: Recombinant human Charcot–Leyden crystal (CLC) protein (natural protein, UniProt Q05315 1-142, looked up)
chain: MSLLPVPYTEAASLSTGSTVTIKGRPLACFLNEPYLQVDFHTEMKEESDIVFHFQVCFGRRVVMNSREYGAWKQQVESKNMPFQDGQEFELSISVLPDKYQVMVNGQSSYTFDHRIKPEAVKMVQVWRDISLTKFNVSYLKR
notes: Galectin-10 (Charcot-Leyden crystal protein), human; the introduction gives 142 amino-acid residues; also called Galectin-10; Gal-10; source: E. coli, bought: Cloud-Clone Corp., purified with Ni-nitrilotriacetic acid resin
- stoichiometry N: 2
